Holding throughout (type): cell-based
For assay [1], the system named is GST-p12 phosphorylation in 293T cells. In words: GST-p12 phosphorylation by ProQ diamond / Sypro ruby staining. Particulars: PQ/SR ratio, 3 technical replicates; "at least". The method, then:
Firstly, GST-p12 pulled-down from mitotic cell lysates was analysed by SDS-PAGE followed by sequential staining with two fluorescent dyes, ProQ diamond (PQ) and Sypro Ruby (SR). PQ is a small molecule fluorophore that binds with high-specificity to phosphorylated proteins. SR binds all proteins and is useful as a total protein indicator. The ratio of PQ and SR dye signals provides a measure of the phosphorylation level with respect to the total amount protein. Viral p12 is known to be mainly phosphorylated at serine 61 within the CTD [19, 25]. We therefore compared the relative phosphorylation levels of GST-p12_WT with a S61A mutant. Compared to p12_S61A, p12_WT was at least 3-fold more phosphorylated (Fig 3E, lanes 2 and 3).
GST-p12 proteins were expressed in 293T cells from pCAGGS/GST-derived plasmids by transient transfection using Turbofect (Thermo Fisher Scientific). Approximately 24 h after transfection, cells were changed into fresh media containing either 400 ng/ml nocodazole (Sigma) or 2 μg/ml aphidicolin (Sigma) and incubated overnight at 37°C. The synchronisation of the cell cultures after drug treatment was assessed by propidium iodide staining and cell cycle phase analysis by flow cytometry. […] ProQ diamond and Sypro ruby staining (Thermo Fisher Scientific) of gels was visualised and quantified on a ChemiDoc imaging system (Bio-Rad).

Assay [2] shares this test system. In words: nano LC-MS/MS phosphopeptide identification of GST-p12. An excerpt: We next used nanoscale liquid chromatography coupled to tandem mass spectrometry (nano LC–MS/MS) to identify phosphopeptides of GST-p12_WT precipitated from 293T cells. The phosphorylation sites in the high confidence tryptic-peptides (<1% false discovery rate, FDR) were assigned using the probability-based phosphoRS algorithm (Table 1). A peptide was counted as being phosphorylated at a specific residue if its phosphoRS site probability was >50%. For each tryptic peptide, the phosphorylation level at a particular site was estimated by dividing the phosphorylated peptide count by the total peptide count. This analysis, carried out with two biological replicates, confirmed S61 to be the main site of phosphorylation on GST-p12_WT, with ~45% of S61-containing peptides phosphorylated at this residue (Table 1). We also identified T52, S65, S78, T80 and S81 as additional sites of low-level phosphorylation on p12 (Table 1). […] The absence of a detectable association between GST-p12 and mitotic chromatin is therefore unlikely to result from a lack of phosphorylation of recombinant p12.
To identify phosphopeptides of GST-p12, bead eluates were separated by SDS-PAGE and stained using SimplyBlue safe stain (Thermo Fisher Scientific). The band corresponding to GST-p12 was then excised and submitted for nano-LC-MS/MS analysis as described in [54], but without phosphopeptides enrichment. The probability-based phosphoRS algorithm was used for assigning phosphorylation sites in the detected peptides.

Assay [3] in a line: Biochemical fractionation of 293T cells expressing GST-p12. Particulars: cycling cells, ~40 h expression, immunoblot of S2, S3, P3. As for the experimental part: GST-p12 proteins were expressed in 293T cells from pCAGGS/GST-derived plasmids by transient transfection using Turbofect (Thermo Fisher Scientific). Cell media was changed 24 h after transfection, and cells were incubated overnight at 37°C, before being harvested, counted, pelleted (500 g, 5 min) and snap frozen in dry ice/ethanol. Biochemical fractionation of cells was performed essentially as described in [14]. Briefly, cell pellets thawed on ice were resuspended at 2.5× 10^7 cells/ml in buffer 1 (10 mm HEPES pH 7.9, 10 mm KCl, 1.5 mm MgCl2, 10% glycerol, 0.34 m sucrose, 1 mm DTT and protease inhibitors) and then supplemented with 0.1% Triton-X-100. Cells were incubated on ice for 5 min and nuclei (P1) were collected by centrifugation at 1300 g, 5 min, 4°C. The supernatant (S1) was clarified by further centrifugation (5 min, 20 000 × g, 4°C) to collect the cytosolic supernatant fraction (S2). The P1 nuclei were washed once with buffer 1 and then lysed for 30 min in buffer 2 (3 mM EDTA, 0.2 mM EGTA and 1 mM DTT, protease inhibitors). The chromatin (P3) and soluble nuclear (S3) fractions were separated by centrifugation (5 min, 1700 g, 4°C). The S2, S3 and P3 fractions were analysed by immunoblotting.

B1: GST-p12_WT: N-terminally GST-tagged Mo-MLV p12 (protein)
chain: PALTPSLGAKPKPQVLSDSGGPLIDLLTEDPPPYRDPRPPPSDRDGNGGEATPAGEAPDPSPMASRLRGRREPPVADSTTSQAF
modifications: left off: GST, N-terminal, kept
notes: N-terminally GST-tagged Mo-MLV p12
For the molecule B1, in assay [1], the “phosphorylation at mitosis in comparison to interphase” value was 3–4 fold. For the same molecule, the “Fraction of phosphorylated peptides” value in assay [2] (S61, peptide aa 36–66, 1 missed cleavage, replicate R1) is 0.47; in assay [2] (S61, peptide aa 36–66, 1 missed cleavage, replicate R2) it was 0.52; in assay [2] (S61, peptide aa 45–66, 0 missed cleavages, replicate R1) it was 0.36; in assay [2] (S61, peptide aa 45–66, 0 missed cleavages, replicate R2), 0.49; in assay [2] (S65, peptide aa 45–66, 0 missed cleavages, replicate R1) it was 0.01; in assay [2] (S65, peptide aa 45–66, 0 missed cleavages, replicate R2), 0.07. In addition, the “Fraction of phosphorylated peptides” value is 0.03 in assay [2] (S78, peptide aa 72–84+ linker, 0 missed cleavages, replicate R1); 0.03 in assay [2] (S78, peptide aa 72–84+ linker, 0 missed cleavages, replicate R2); 0.10 in assay [2] (S81, peptide aa 71–84+ linker, 1 missed cleavage, replicate R1); 0.03 in assay [2] (S81, peptide aa 72–84+ linker, 0 missed cleavages, replicate R1); 0.01 in assay [2] (S81, peptide aa 72–84+ linker, 0 missed cleavages, replicate R2); 0.13 in assay [2] (T52, peptide aa 45–66, 0 missed cleavages, replicate R1). Also, the “Fraction of phosphorylated peptides” value in assay [2] (T52, peptide aa 45–66, 0 missed cleavages, replicate R2) worked out at 0.04; in assay [2] (T80, peptide aa 71–84+ linker, 1 missed cleavage, replicate R1), 0.04; in assay [2] (T80, peptide aa 72–84+ linker, 0 missed cleavages, replicate R1) it was 0.01. Further, the “sub-cellular distribution by fractionation” value in assay [3] is recorded as “mainly cytoplasmic”.

For the origin of these results see publication PMC6021111, “Murine leukemia virus p12 tethers the capsid-containing pre-integration complex to chromatin by binding directly to host nucleosomes in mitosis” (PLoS Pathogens, 2018).
